Assay results: patent CN114480298A (MEGEE TRANSF MEDICAL RESEARCH SUZHOU CO LTD, dated 2022)

Columns and labels:
TF-TIGIT融合蛋白 (原核表达) = target: T1, TF-TIGIT融合蛋白 (原核表达) (human (TIGIT part)); experiment: Western blot, 0.2 μg antigen per lane, primary antibody 0.2 µg/mL
T1 construct: also called TF-TIGIT蛋白; 原核表达的TF-TIGIT蛋白
T1 chain: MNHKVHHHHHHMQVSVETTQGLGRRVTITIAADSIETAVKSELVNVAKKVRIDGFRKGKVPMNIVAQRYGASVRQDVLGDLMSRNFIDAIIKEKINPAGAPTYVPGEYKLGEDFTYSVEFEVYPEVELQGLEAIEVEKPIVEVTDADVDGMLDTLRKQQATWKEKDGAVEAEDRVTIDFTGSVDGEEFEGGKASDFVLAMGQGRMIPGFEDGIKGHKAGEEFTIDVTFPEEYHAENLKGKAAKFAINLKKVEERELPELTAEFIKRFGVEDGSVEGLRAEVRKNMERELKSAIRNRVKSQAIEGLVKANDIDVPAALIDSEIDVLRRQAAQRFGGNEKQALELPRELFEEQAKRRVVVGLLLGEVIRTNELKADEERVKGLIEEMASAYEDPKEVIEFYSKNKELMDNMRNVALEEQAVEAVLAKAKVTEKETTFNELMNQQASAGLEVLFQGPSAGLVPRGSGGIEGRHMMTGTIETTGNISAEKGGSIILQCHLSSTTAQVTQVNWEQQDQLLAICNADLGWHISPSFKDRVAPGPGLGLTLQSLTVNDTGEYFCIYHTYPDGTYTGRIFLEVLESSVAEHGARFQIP

[1] = target: T2, 人TIGIT (人体组织细胞膜上表达的TIGIT蛋白) (human, UniProt Q495A1 22-244); experiment: immunohistochemistry on FFPE human tissue, primary antibody 3.5 μg/mL
T2 construct: whole, on cells
T2 sequence (looked up): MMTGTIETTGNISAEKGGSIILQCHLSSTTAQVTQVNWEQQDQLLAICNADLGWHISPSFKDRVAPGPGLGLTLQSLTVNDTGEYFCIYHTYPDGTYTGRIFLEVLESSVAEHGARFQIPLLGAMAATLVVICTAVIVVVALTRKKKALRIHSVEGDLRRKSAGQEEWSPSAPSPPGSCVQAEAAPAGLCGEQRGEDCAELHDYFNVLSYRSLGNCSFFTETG

binding result (TF-TIGIT融合蛋白 (原核表达)): binds
binding result [1]: binds
B1: 抗TIGIT单克隆抗体MJ12-30 (antibody, mouse IgG1, kappa, V domains shown)
VH: EVKLEQSGGVLVQPGGSRKLSCAASGFTFHSFGMHWVRQAPEKGLEWVAYISSGGSTIFYADTVKGRFTISRDNPKNTLFLQMTSLRSEDTAMYYCAGSDHGNLGYWGQGTTLTVSS
VL: DIVLTQSPLSLSVSLGDQASISCRSSQSILHSGGNTYLDWFLQRPGQSPKLLIYKVSNRISGVPDRFSGSGAGTDFTLKISRVEAEDLGVYYCFQGNHVPPTFGGGTKLEIKR
notes: full chains used here; also called 鼠抗人TIGIT单克隆抗体杂交瘤细胞系MJ12-30 (CGMCC No.45102) 分泌的抗体
